Measurements from publication PMC10990141.

Target: F-actin from rabbit skeletal muscle G-actin (rabbit) (UniProt P68135)
Test: cryoEM images and 2D image averages; 0.83 uM full-length myosin-5a, 3.6 uM calmodulin, 2.1 uM F-actin, 0.20 mM ATP, 95 mM KCl, 48 uM MgCl2, 0.12 mM EGTA, 10 mM MOPS pH 7.0, 22 °C; applied within 10 s to a lacey carbon grid and flash frozen

full-length mouse myosin-5a, melanocyte-specific isoform, with calmodulin (from UniProt P0DP23 1-149) (complex)
percent of the added myosin attached to actin: < 10%
